Laboratory results as given in patent publication US5705334.

How the values were obtained:
[1] = tested on: HMG1; experiment: inhibition; conditions: cisplatin 1,2-d(GpG) intrastrand crosslink at a defined site; 1 uM protein; 20% at 0.5 uM; HeLa extract excinuclease, 30 C; EMSA also run at 1-8 uM but result not stated
[2] = tested on: h-mtTFA (human mitochondrial transcription factor A) (Homo sapiens); experiment: inhibition; conditions: 1 uM protein, HeLa extract excinuclease, 30 C

Row | Substance | activity (% inhibition of repair) [1] | activity (% inhibition of repair) ([2]; cisplatin 1,2-d(GpG) intrastrand crosslink at a defined site, 95% at 0.5 uM, 8 mM MgCl2, 2 mM ATP) | activity (% inhibition of repair) ([2]; cisplatin 1,3-d(GpTpG) intrastrand crosslink at a defined site, 40% at 0.5 uM)
1 | 156 bp DNA with site-specific cisplatin 1,2-d(GpG) intrastrand adduct | 40 | 100 | 
2 | 156 bp DNA with site-specific cisplatin 1,3-d(GpTpG) intrastrand adduct |  |  | 75
